Measured values taken from article PMC5245964 (eLife, 2017).

Biological target: T1, Mis18α:Mis18β complex (insect-cell-expressed) (human, UniProt Q9NYP9 1-233; O43482 1-229)
T1 construct: Mis18α, human, the CDS of Mis18α; codon-optimized cDNA (GeneArt); Mis18β, human, the CDS of Mis18β; pre-formed complex used as one partner in pull-downs and reconstitution; also called Mis18α:Mis18β hexamer; source: Tnao38 insect cells, baculovirus co-expression, purified (Ni resin, His-TEVp cleavage, SEC); not shown: His6, N-terminal, cleaved; copies: 4 + 2
Assay: pull-down; MBP-tagged M18BP1 variant held on amylose resin, Mis18α:Mis18β in solution; proteins 3 μM, buffer HST300 (30 mM HEPES pH 7.5, 300 mM NaCl, 1 mM TCEP), 4°C, 30 min; CBB-stained Tricine–SDS-PAGE
Conditions: both partners purified

T1 sequence (Q9NYP9 whole entry, chain 1 of 2): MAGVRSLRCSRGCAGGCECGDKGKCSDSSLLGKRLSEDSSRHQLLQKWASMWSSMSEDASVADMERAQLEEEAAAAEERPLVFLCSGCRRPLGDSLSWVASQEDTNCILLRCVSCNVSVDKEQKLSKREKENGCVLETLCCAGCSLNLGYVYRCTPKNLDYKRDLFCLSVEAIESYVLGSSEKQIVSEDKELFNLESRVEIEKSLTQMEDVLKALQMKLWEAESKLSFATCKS
T1 sequence (O43482 whole entry, chain 2 of 2): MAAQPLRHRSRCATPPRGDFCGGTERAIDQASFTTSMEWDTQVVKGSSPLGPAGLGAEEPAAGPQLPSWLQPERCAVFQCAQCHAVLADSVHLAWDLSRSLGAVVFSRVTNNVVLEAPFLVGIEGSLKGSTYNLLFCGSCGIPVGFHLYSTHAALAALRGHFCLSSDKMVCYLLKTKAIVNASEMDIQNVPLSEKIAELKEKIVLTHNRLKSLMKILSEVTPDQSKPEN

binding result: binds
B1: MBP-M18BP1^61–140/S110A-8His (domain or fragment, human, UniProt Q6P0N0 61-140, looked up)
chain: NQFLKMTTFNNKNIFQSTMLTEATTSNSSLDISAIKPNKDGLKNKANYEAPGKIFLRMKEKVLRDKQEQPSRNSSLLEPQ
notes: M18BP1 (KNL2), human, residues 61-140; also tested after CDK1:Cyclin B1 treatment; Ser110 is the only major site of 61-140, so no separate molecule was made; source: E. coli BL21-CodonPlus(DE3)-RIL, purified (Ni resin); not shown: MBP, N-terminal, kept; His8, C-terminal, kept
